Measured values published in publication PMC4596688, “Structural determinants of nuclear export signal orientation in binding to exportin CRM1” (eLife, 2015).

Biological target: Full-length human CRM1 (HsCRM1), O14980
Experiment: GST pull-down, SDS/PAGE band intensity
Conditions: chain shown with the change; excess ScRanGTP; triplicate experiments; parent: est. 100; read off a plot

Sequence of Full-length human CRM1 (HsCRM1), O14980 (O14980 whole entry): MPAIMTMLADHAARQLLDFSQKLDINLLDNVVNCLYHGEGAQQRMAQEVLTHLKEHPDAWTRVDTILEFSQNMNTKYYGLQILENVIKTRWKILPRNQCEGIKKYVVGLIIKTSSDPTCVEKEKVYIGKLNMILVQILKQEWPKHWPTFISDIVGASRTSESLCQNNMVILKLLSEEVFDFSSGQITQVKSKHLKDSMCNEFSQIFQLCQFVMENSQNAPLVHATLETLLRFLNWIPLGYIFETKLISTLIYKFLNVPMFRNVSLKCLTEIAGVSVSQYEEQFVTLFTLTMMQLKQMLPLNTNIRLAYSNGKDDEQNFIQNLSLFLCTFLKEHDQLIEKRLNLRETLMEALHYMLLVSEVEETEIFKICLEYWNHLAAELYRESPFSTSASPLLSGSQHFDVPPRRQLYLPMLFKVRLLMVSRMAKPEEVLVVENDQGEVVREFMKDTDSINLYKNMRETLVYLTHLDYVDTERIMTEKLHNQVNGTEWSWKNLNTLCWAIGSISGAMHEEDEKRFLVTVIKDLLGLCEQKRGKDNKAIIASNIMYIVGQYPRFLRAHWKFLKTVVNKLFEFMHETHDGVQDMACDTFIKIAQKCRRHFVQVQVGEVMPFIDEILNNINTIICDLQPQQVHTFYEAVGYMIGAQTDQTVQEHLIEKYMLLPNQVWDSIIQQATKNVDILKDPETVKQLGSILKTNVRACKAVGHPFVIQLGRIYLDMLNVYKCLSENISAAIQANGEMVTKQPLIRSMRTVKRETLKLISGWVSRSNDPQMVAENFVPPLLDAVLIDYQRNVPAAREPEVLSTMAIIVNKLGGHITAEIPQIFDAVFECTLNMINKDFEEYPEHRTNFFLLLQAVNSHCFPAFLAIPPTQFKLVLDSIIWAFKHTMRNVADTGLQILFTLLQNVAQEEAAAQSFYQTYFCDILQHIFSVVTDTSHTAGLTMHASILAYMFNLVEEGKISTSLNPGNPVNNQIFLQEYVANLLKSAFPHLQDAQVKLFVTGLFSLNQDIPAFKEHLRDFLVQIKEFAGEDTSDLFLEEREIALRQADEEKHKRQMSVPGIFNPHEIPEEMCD

Row | percent of parent [%] | Binder
1 | 140 | GKIEELAQNFETMEVSR [GST-hRio2NES-R F13V]
2 | 150 | GKIEELAQNFETMEISR [GST-hRio2NES-R F13I]
3 | 105 | GKIEELAQNFETLEFSR [GST-hRio2NES-R M11L]
4 | 130 | GKIEELAQNFETMELSR [GST-hRio2NES-R F13L]
